# Results published in publication PMC10135305.
# Molecular target: C-terminal domain of catalase-3 (CAT-3) of Neurospora crassa (TDC3) (Neurospora crassa) (UniProt Q9C169)
# Experiment: SEC; Superdex 75 HR 10/300 on FPLC; TDC3 1 mg/mL injected, 0.75 mL/min; mass from gel filtration standards
substance,measurement,value
C-terminal domain of catalase-3 (CAT-3) of Neurospora crassa (TDC3) (from UniProt Q9C169 568-719) (domain or fragment),stoichiometry N,2
